This is an account of results in patent US20220259593A1, “CONTROL OF MAMMALIAN GENE DOSAGE USING CRISPR” (The Regents of the University of California, priority 2019, published 2022).

This data set relates to K562 CRISPRi cells. The experiment in a line: Constant region variant library pooled growth screen, K562. Format: cell-based, human. The settings on record: sgRNA constant region variants; activity relative to the original, un-modified constant region cr995. A digest of the protocol:
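Cells were selected with puromycin for 2 days and then kept in RPMI-1640 spinner cultures, with duplicates handled separately. Targeting sequences comprised 3 sgRNAs per essential gene for 10 genes plus six non-targeting controls. Activities were normalized against pairing with the unmodified scaffold.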

Positions count from the first letter of the chain named.

B1: cr078 (nucleic acid)
guide: GTTTTGGAGCTAAGCTGGAAACAGCATAGCAAGTTTAAATAAGGCTAGTCCGTTATCAACTTGAAAAAGTGGCACCGAGTCGGTGCT
modifications: listed as DNA, chemistry not fully specified
For the molecule B1, the Mean relative activity was 0.03507.

B2: cr320 (nucleic acid)
guide: B1 guide with T5A, G6A, A32T, A65G
modifications: listed as DNA, chemistry not fully specified
In turn, B2 displayed a Mean relative activity of 1.035.

B3: cr570 (nucleic acid)
guide: B1 guide with T5A, G6A, G33C, A74T, T84A
modifications: listed as DNA, chemistry not fully specified
As for B3, the Mean relative activity stood at 0.02846.

B4: cr357 (nucleic acid)
guide: B1 guide with T5A, G6A, T34G, A74T, T84A
modifications: listed as DNA, chemistry not fully specified
Regarding B4, the Mean relative activity was 0.03253.

B5: cr151 (nucleic acid)
guide: B1 guide with T5A, G6A, G33C, T53G
modifications: listed as DNA, chemistry not fully specified
The molecule B5 had a Mean relative activity of 0.03186.

B6: cr012 (nucleic acid)
guide: B1 guide with T4G, T5A, G6A
modifications: listed as DNA, chemistry not fully specified
As for B6, the Mean relative activity came to 0.02769.

B7: cr627 (nucleic acid)
guide: B1 guide with T5A, G6A, G43T, C51A, A65G
modifications: listed as DNA, chemistry not fully specified
With B7, the Mean relative activity is given as 0.02763.

B8: cr301 (nucleic acid)
guide: B1 guide with T5A, G6A, G33C, G79T
modifications: listed as DNA, chemistry not fully specified
In turn, B8 showed a Mean relative activity of 0.03132.

B9: cr096 (nucleic acid)
guide: B1 guide with T5G, G6T
modifications: listed as DNA, chemistry not fully specified
Regarding B9, the Mean relative activity is listed as 0.02764.

B10: cr526 (nucleic acid)
guide: B1 guide with T5A, G6A, G43T, C51A, A74G, T84C
modifications: listed as DNA, chemistry not fully specified
In turn, B10 gave a Mean relative activity of 0.03359.

B11: cr745 (nucleic acid)
guide: B1 guide with T5A, G6A, G43A
modifications: listed as DNA, chemistry not fully specified
In turn, B11 returned a Mean relative activity of 0.02631.

B12: cr880 (nucleic acid)
guide: B1 guide with T5A, G6A, T34G, C75T, G83A
modifications: listed as DNA, chemistry not fully specified
Molecule B12 yielded a Mean relative activity of 0.03183.

B13: cr616 (nucleic acid)
guide: B1 guide with T5A, G6A, C60G, T61A, A68T, G69C
modifications: listed as DNA, chemistry not fully specified
B13 displayed a Mean relative activity of 1.035.

B14: cr743 (nucleic acid)
guide: B1 guide with T5A, G6A, G33C, A74G, T84C
modifications: listed as DNA, chemistry not fully specified
Consider B14, for which the Mean relative activity is reported as 0.03495.

B15: cr574 (nucleic acid)
guide: B1 guide with T5A, G6A, A37C
modifications: listed as DNA, chemistry not fully specified
B15 had a Mean relative activity of 0.03217.

B16: cr933 (nucleic acid)
guide: B1 guide with T5A, G6A, T34G, G72T, C86A
modifications: listed as DNA, chemistry not fully specified
B16 gave a Mean relative activity of 0.0286.

B17: cr032 (nucleic acid)
guide: B1 guide with T2A, T5G, G6A
modifications: listed as DNA, chemistry not fully specified
With B17, the Mean relative activity was 0.02646.

B18: cr641 (nucleic acid)
guide: B1 guide with T5A, G6A, T34G
modifications: listed as DNA, chemistry not fully specified
The molecule B18 gave a Mean relative activity of 0.02687.

B19: cr241 (nucleic acid)
guide: B1 guide with T5A, G6A, G33C, T61A, A68T
modifications: listed as DNA, chemistry not fully specified
In the case of B19, the Mean relative activity worked out at 0.03304.

B20: cr830 (nucleic acid)
guide: B1 guide with T5A, G6A, T49G, G72T
modifications: listed as DNA, chemistry not fully specified
Molecule B20 showed a Mean relative activity of 0.02925.

B21: cr593 (nucleic acid)
guide: B1 guide with T5A, G6A, A59C, T70G
modifications: listed as DNA, chemistry not fully specified
For the molecule B21, the Mean relative activity is listed as 1.035.

B22: cr757 (nucleic acid)
guide: B1 guide with T5A, G6A, G33C, T62A, A67T
modifications: listed as DNA, chemistry not fully specified
In turn, B22 yielded a Mean relative activity of 0.02851.

B23: cr048 (nucleic acid)
guide: B1 guide with G1T, T4C, T5A, G6A
modifications: listed as DNA, chemistry not fully specified
For B23, the Mean relative activity is on record as 0.02761.

B24: cr009 (nucleic acid)
guide: B1 guide with T3G, T5A, G6A
modifications: listed as DNA, chemistry not fully specified
The molecule B24 had a Mean relative activity of 0.02783.

B25: cr378 (nucleic acid)
guide: B1 guide with T5A, G6A, A41G
modifications: listed as DNA, chemistry not fully specified
B25 registered a Mean relative activity of 0.02893.

B26: cr095 (nucleic acid)
guide: B1 guide with T3A, T5A, G6A, A8T
modifications: listed as DNA, chemistry not fully specified
On to B26, for which the Mean relative activity is 0.02974.

B27: cr312 (nucleic acid)
guide: B1 guide with T5A, G6A, T34G, T61G, A68C
modifications: listed as DNA, chemistry not fully specified
B27 came in with a Mean relative activity of 0.03032.

B28: cr738 (nucleic acid)
guide: B1 guide with T5A, G6A, A32T, A41T
modifications: listed as DNA, chemistry not fully specified
For B28, the Mean relative activity is given as 0.03306.

B29: cr571 (nucleic acid)
guide: B1 guide with T5A, G6A, T34G, T62C, A67G
modifications: listed as DNA, chemistry not fully specified
In the case of B29, the Mean relative activity was determined as 0.03194.

B30: cr314 (nucleic acid)
guide: B1 guide with T5A, G6A, T34G, C73A, G85T
modifications: listed as DNA, chemistry not fully specified
Take B30: the Mean relative activity was 0.03303.

B31: cr313 (nucleic acid)
guide: B1 guide with T5A, G6A, C73G, A74T, C75G, C76G, G83C, G85C
modifications: listed as DNA, chemistry not fully specified
In the case of B31, the Mean relative activity is on record as 0.03202.

B32: cr638 (nucleic acid)
guide: B1 guide with T5A, G6A, T34C, C45G, G48C
modifications: listed as DNA, chemistry not fully specified
B32: the Mean relative activity is reported as 0.03012.

B33: cr711 (nucleic acid)
guide: B1 guide with T5A, G6A, T34G, G72C, C86G
modifications: listed as DNA, chemistry not fully specified
For B33, the Mean relative activity is reported as 0.0267.

B34: cr716 (nucleic acid)
guide: B1 guide with T5A, G6A, A31C, G33T
modifications: listed as DNA, chemistry not fully specified
Molecule B34 yielded a Mean relative activity of 0.03033.

B35: cr010 (nucleic acid)
guide: B1 guide with T4A, T5A, G6A
modifications: listed as DNA, chemistry not fully specified
The molecule B35 showed a Mean relative activity of 0.02976.

B36: cr202 (nucleic acid)
guide: B1 guide with T5A, G6A, G33C, G72A, C86T
modifications: listed as DNA, chemistry not fully specified
As for B36, the Mean relative activity came out at 0.03423.

B37: cr085 (nucleic acid)
guide: B1 guide with G6T
modifications: listed as DNA, chemistry not fully specified
Molecule B37 showed a Mean relative activity of 0.02666.

B38: cr007 (nucleic acid)
guide: B1 guide with T3A, T5A, G6A
modifications: listed as DNA, chemistry not fully specified
Consider B38, for which the Mean relative activity was 0.03285.

B39: cr988 (nucleic acid)
guide: B1 guide with T5A, G6A, G33C, C60G, G69C
modifications: listed as DNA, chemistry not fully specified
Turning to B39, the Mean relative activity came to 0.0305.
